According to patent publication US20220348635A1, “COMPOSITIONS AND METHODS FOR NEUROLOGICAL DISEASES” (Coda Biotherapeutics, Inc., priority 2019, published 2022):

Assays:
Assay type in all cases: cell-based
[1] = YFP quench plate reader assay, response to APN-1125; details: LX293T YFP reporter cells
Procedure, shortened: (§1)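 LX293T cells transiently transfected with engineered chimeric LGIC DNA in a YFP anion-reporter background, then equilibrated 30 min at 37 °C in ECS pH 7.2. Ligand in NaI-substituted ECS added after a 17 s baseline; YFP fluorescence read every 1.3 s for 2 min, reported as percent quench […].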

[2] = Evoked action potentials in transduced rat DRG neurons, acetylcholine; details: Acetylcholine at 3.0 mM, n=4
Method: (§2) Acetylcholine at 3.0 mM had no effect on evoked action potentials in transduced neurons (n=4) (FIG. 4B).

[3] = Evoked action potentials in transduced rat DRG neurons, RG-3487; details: RG-3487 (SA-2) at 3 μM
Method: (§3) Using whole cell manual patch clamp electrophysiology in HEK293 cells and rat DRG neurons, the EC50 of the various engineered receptors disclosed herein to Ach and non-native ligands was measured. The rheobase shift was also measured in rat DRG neurons, which reflects the efficacy of the receptors. To calculate the rheobase, first, the amount of current that can produce an action potential was determined. Then the ligand was added, followed by a step wise increase in the current injected up to 700 pA. The current injected after addition of the ligand was divided by, the original current injected to obtain an action potential, to calculate the rheobase. The EC50 was calculated using the Hill equation with peak current measurements from escalating doses of ligand.
as §2

[4] = Manual patch clamp, rat DRG neurons, Facinicline/RG3487; details: cultured adult rat DRG neurons expressing the receptor; not observed in non-transduced cells
Method: as §3

[5] = YFP quench plate reader assay, response to TC-6987; details: LX293T YFP reporter cells
Procedure, shortened: as §1

[6] = Manual patch clamp, HEK cell line, Facinicline/RG3487; details: HEK293 cells and cultured rat DRG sensory neurons
Method: (§4) FIG. 2A-FIG. 2B show the concentration-response curves of CR-11 (Chemogenic receptor-11, an engineered receptor comprising an amino acid sequence having the amino acid substitutions of Y115D and L131Q in SEQ ID NO: 33) expressed in HEK 293 cells to acetylcholine as well as to non-native ligands RG-3487 (SA-2, Synthetic Agonist-2). The responses were evaluated using manual patch clamp electrophysiology. Currents were normalized to unity for the maximal response. The continuous line through the data points is the best fit obtained with the Hill equation, and EC50s for each ligand are estimated from the concentration-response curves.
as §3, with “The current injected after addition of the ligand was divided by, the original current injected to obtain an action potential, to calculate the rheobase.” left out

[7] = Manual patch clamp, HEK cell line, acetylcholine; details: HEK293 cells and cultured rat DRG sensory neurons
Method: as §4
as §3, with “The current injected after addition of the ligand was divided by, the original current injected to obtain an action potential, to calculate the rheobase.” left out

[8] = YFP quench plate reader assay, response to acetylcholine; details: LX293T YFP reporter cells
Procedure, shortened: as §1

B1: Y115D, L131Q in SEQ ID NO: 33: CR-11 (Chemogenic receptor-11): SEQ ID NO: 33 with substitutions Y115D and L131Q (protein)
chain: MRCSPGGVWLALAASLLHVSLQGEFQRKLYKELVKNYNPLERPVANDSQPLTVYFSLSLLQIMDVDEKNQVLTTNIWLQMSWTDHYLQWNVSEYPGVKTVRFPDGQIWKPDILLDNSADERFDATFHTNVQVNSSGHCQYLPPGIFKSSCPMDLKNFPMDVQTCKLKFGSWSYGGWSLDLQMQEADISGYIPNGEWDLVGIPGKRSERFYECCKEPYPDVTFTVTMRRRMGYYLIQMYIPSLLIVILSWISFWINMDAAPARVGLGITTVLTMTTQSSGSRASLPKVSYVKAIDIWMAVCLLFVFSALLEYAAVNFVSRQHKELLRFRRKRRHHKSPMLNLFQEDEAGEGRFNFSAYGMGPACLQAKDGISVKGANNSNTTNPPPAPSKSPEEMRKLFIQRAKKIDKISRIGFPMAFLIFNMFYWIIYKIVRREDVHNQ
modifications: synthetic sequence of chimeric LGIC
percent quench of YFP fluorescence, 100 nM apn ([1]; 100 nM APN-1125): −10.03%
percent quench of YFP fluorescence, 1 uM apn ([1]; 1 uM APN-1125): −3.33%
percent quench of YFP fluorescence, 30 uM apn ([1]; 30 uM APN-1125): 6.96%
effect on evoked action potentials [2]: no effect
effect on current injection evoked action potentials [3]: reversibly inhibits
increase in the current required to elicit action potentials ([3]; n=7): ~3 ×
chloride current on application of RG-3487 (SA-2) [4]: generated chloride current in a dose dependent manner
percent quench of YFP fluorescence, 1 uM tc6 ([5]; 1 uM TC-6987): 38.83%
percent quench of YFP fluorescence, 10 uM tc6 ([5]; 10 uM TC-6987): 31.59%
percent quench of YFP fluorescence, 500 uM tc6 ([5]; 500 uM TC-6987): 29.83%
sensitivity to RG-3487 compared to wildtype nAchRa7 receptor [6]: more sensitive
sensitivity / potency to acetylcholine [7]: essentially insensitive
percent quench of YFP fluorescence, 10 uM ach ([8]; 10 uM acetylcholine): 9.47%
percent quench of YFP fluorescence, 100 uM ach ([8]; 100 uM acetylcholine): 6.12%
percent quench of YFP fluorescence, 1 mM ach ([8]; 1 mM acetylcholine): −1.56%
percent quench of YFP fluorescence, 3 mM ach ([8]; 3 mM acetylcholine): 17.57%
